In publication PMC8608799, “The main oxidative inactivation pathway of the plant hormone auxin” (Nature Communications, 2021):

Legend:
Format in all cases: biochemical, Arabidopsis thaliana
Conditions in all cases: 1 mM MnCl2, 0.5 mM dithiothreitol, 50 mM Tris-HCl pH 7.4, 32 °C
[1] = system: O=C(O)CC[C@H](NC(=O)Cc1c[nH]c2ccccc12)C(=O)O; assay: HPLC of hydrolysis product, kinetics
[2] = system: O=C(O)C[C@H](NC(=O)CC1C(=O)Nc2ccccc21)C(=O)O; assay: HPLC of hydrolysis product, kinetics
[3] = system: O=C(O)C[C@H](NC(=O)Cc1c[nH]c2ccccc12)C(=O)O; assay: HPLC of hydrolysis product, kinetics
[4] = system: O=C(O)CC[C@H](NC(=O)CC1C(=O)Nc2ccccc21)C(=O)O; assay: HPLC of hydrolysis product, Lineweaver-Burk

Chain of GST-ILR1 (Arabidopsis thaliana) (chain, as listed by the source): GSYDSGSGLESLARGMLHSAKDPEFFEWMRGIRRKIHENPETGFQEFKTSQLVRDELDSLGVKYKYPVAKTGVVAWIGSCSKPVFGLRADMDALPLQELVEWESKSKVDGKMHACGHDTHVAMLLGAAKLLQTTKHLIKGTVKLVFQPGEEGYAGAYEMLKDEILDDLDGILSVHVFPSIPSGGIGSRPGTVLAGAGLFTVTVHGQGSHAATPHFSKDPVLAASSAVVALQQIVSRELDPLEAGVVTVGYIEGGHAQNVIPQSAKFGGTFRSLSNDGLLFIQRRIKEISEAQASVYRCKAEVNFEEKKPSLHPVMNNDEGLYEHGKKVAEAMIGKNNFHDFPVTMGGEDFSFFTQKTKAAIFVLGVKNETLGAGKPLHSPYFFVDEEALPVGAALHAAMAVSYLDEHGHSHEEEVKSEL

GST-ILR1 (Arabidopsis thaliana)
Km [1]: 59.9723 ± 7.5726 µM | kcat [1]: 0.021 s⁻¹ | Km [2]: 130.125 ± 25.3236 µM | kcat [2]: 0.0036 s⁻¹ | Km [3]: 340.087 ± 41.4597 µM | kcat [3]: 0.0025 s⁻¹ | Km [4]: 2.71 ± 0.34 µM | kcat [4]: 0.0089 s⁻¹
